Earlier results as cited in article PMC5033469.

Target: CD11c I domain (Homo sapiens) (UniProt P20702)
Sequence (P20702 165-339): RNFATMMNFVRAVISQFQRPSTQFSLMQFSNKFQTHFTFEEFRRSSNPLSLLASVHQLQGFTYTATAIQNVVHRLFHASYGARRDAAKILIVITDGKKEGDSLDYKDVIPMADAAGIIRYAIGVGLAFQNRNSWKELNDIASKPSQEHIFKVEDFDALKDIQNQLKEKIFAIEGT

Sequence of fibrinogen (P02671 36-866): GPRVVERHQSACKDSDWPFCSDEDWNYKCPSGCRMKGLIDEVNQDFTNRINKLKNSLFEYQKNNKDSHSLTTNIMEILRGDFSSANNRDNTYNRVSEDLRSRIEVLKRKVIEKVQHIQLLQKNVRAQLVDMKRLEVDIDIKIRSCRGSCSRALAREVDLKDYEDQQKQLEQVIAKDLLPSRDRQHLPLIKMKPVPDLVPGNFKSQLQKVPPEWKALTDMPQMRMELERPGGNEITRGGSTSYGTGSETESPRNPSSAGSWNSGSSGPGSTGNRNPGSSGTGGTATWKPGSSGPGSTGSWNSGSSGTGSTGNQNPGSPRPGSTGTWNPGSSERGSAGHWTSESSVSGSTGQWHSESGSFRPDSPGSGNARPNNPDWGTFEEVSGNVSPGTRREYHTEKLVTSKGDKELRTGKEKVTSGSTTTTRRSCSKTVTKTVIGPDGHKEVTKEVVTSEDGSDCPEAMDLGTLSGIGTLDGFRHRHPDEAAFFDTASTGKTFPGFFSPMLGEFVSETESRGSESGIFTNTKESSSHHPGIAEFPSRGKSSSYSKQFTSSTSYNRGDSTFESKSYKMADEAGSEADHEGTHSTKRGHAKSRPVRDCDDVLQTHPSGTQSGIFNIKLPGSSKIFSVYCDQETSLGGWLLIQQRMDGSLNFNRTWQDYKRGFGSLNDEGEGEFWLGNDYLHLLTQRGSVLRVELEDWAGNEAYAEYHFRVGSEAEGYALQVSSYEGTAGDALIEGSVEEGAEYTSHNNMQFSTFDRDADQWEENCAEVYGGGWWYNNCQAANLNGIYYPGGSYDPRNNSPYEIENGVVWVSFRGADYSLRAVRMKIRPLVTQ
Sequence of fibrinogen (P02675 45-491, further chain): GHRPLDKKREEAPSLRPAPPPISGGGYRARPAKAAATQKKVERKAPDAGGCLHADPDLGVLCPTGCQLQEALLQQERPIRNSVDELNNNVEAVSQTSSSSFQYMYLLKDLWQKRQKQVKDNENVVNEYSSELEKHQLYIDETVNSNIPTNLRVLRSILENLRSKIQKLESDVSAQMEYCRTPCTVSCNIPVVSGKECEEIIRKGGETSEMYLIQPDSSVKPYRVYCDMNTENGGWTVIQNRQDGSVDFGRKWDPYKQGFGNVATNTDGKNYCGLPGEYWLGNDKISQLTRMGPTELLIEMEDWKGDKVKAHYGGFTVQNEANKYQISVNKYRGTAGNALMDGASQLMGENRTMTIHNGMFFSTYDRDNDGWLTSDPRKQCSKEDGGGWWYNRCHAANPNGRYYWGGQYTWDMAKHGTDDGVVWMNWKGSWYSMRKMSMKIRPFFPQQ
Sequence of fibrinogen (P02679 27-453, further chain): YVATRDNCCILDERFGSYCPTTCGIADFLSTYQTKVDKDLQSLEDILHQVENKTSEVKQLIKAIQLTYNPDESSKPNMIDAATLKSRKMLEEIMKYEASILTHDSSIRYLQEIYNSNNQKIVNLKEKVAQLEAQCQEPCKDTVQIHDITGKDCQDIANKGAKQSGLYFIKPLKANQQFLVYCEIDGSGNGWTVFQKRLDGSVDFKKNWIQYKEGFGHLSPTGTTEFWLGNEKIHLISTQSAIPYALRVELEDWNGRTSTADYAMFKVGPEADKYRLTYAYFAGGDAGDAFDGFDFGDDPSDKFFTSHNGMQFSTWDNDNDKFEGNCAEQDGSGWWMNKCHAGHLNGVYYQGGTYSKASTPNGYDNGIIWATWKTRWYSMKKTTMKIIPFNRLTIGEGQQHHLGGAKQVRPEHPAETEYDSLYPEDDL

Substance: fibrinogen (from UniProt P02671)
- Kd: 50 µM
